Source: patent US8329865B2, “Antimicrobially active peptides” (priority 2001, dated 2012)

Legend:
[1] = test system: Escherichia coli, Staphylococcus aureus, Enterococcus faecalis and Candida albicans; test: CFU test (colony-forming units), Example 4; assay type: cell-based; conditions: sodium phosphate buffer, 37° C., 3 h, 4 h or overnight
Method: The antimicrobial effect of said peptides was carried out by a CFU test (test for colony-forming units) as described for the defensins by Valore et al., “Human Beta-Defensin-1: An Antimicrobial Peptide of Urogenital Tissues”, J Clin Invest 101, 1633-1642 (1998).
The test of the novel peptides was carried out with Escherichia coli, Staphylococcus aureus, Enterococcus faecalis and Candida albicans. E. coli was incubated in LB medium, E. faecalis and S. aureus in Columbia medium (Difko, BD Heidelberg) and C. albicans in casein hydrolysate medium (Merck, Darmstadt). The amounts of bacteria and yeasts were determined by photometry. The bacterial strains were incubated to an optical density of […] at 600 nm and the yeast was incubated to an optical density of 0.4-0.6 at 450 nm. The amount of the organisms was determined by plating various dilutions as follows: an OD of 1 at 600 nm is equivalent to 8.2×10^9/ml for E. coli, 1.9×10^10/ml for S. aureus and 9.0×10^9/ml for E. faecalis, and an OD of 1 at […] is equivalent to 1.4×10^8/ml for C. albicans.
The cells were washed twice with 10 mM sodium phosphate buffer (pH 7.4) and diluted to 2-3×10^7 cells/ml (E. coli, E. faecalis), 5.7×10^7 cells/ml (S. aureus) or 5×10^5 cells/ml (C. albicans) in phosphate buffer.
The cells were incubated with various amounts of the peptides in 200 μl of sodium phosphate buffer at 37° C. for 3 h, 4 h or overnight (21-24 h). The cells were diluted 1:10 to 1:100 for the bacteria and 1:500 to 1:5000 for the yeast, and 50 μl, 100 μl and 200 μl were plated on appropriate agar plates. The plates were incubated at 37° C. overnight, and the number of colonies was counted. The antimicrobial effect of the peptides has been stated as percentage of killed cells: [1−(cell survival after incubation with the peptide)/(cell survival after control incubation)]×100.

[2] = CD spectroscopy, secondary structure; assay type: physicochemical
Method: CD) spectroscopy. Circular dichroism (CD) measurements were performed with a Jasco J-720 CD spectrapolarimeter (Jasco, Tokyo, Japan) to determine the secondary structure of DCD-derived peptides. The data are reported as the average of three to four scans at 50 nm/min with a 1-nm step resolution. The CD spectra of the peptides (50 μM) in 10 mM sodium phosphate buffer (pH 7.0) with different amounts of NaCl (10, 100, and 150 mM) in 0 to 60% (vol/vol) trifluoroethanol (TFE) and in the presence of artificial phospholipid vesicles such as DOPC and DOPC-DOPG (1:1 molar ratio) were recorded at room temperature in the 180- to 260-nm wavelength range. The data are reported as the mean residue ellipticity in units of degrees cm^2 dmol^−1 and plotted versus wavelength. The secondary structural predictions for peptides were carried out by Jasco secondary structure software.

[3] = CF release assay with unilamellar liposomes; conditions: even after the addition of 10 μM peptide; relative to Triton X-100
Method: FIG. 9. Effect of DCD-derived peptides on membrane permeability. (A) Outer membrane permeability measured by peptide-mediated NPN uptake in E. coli ML-35p. E. coli cells were incubated with 10 μM NPN in the presence of various concentrations of DCD peptides in 5 mM sodium HEPES buffer (pH 7.4). Enhanced uptake due to membrane permeability was measured by an increase in fluorescence intensity (Ex350 and Em460) caused by partition of NPN into the hydrophobic interior of the outer membrane. At time point 0 min, intact E. coli ML-35p cells were added to the peptides. The results are expressed as NPN uptake factor of fluorescence in arbitrary units. All analyses were performed in triplicates. (B) Inner membrane permeability measured as the influx of ONPG in E. coli ML-35p after the addition of DCD peptides. […] The release of ONP by cytoplasmic β-galactosidase was spectrophotometrically monitored at 420 nm. […] All samples were analyzed in triplicates. […] Release was determined 4 min after peptide addition at concentrations of 1 to 10 μM. […] Reaction progress was expressed as the percentage of CF released relative to the total fluorescence released after the addition of Triton X-100 solution at the end of each experiment.
Preparation of liposomes and CF release assay. […] The liposome concentration was determined by phosphorous analysis (Rouser, G. et al. 1970 Lipids 5:494-496). […]

human erythrocytes = test: Hemolytic assay; assay type: cell-based; conditions: 100 μg/ml
Method: Hemolytic assay. The hemolytic activity of DCD peptides was determined on fresh human erythrocytes, which were separated from human EDTA blood using a Ficoll gradient. Isolated erythrocytes were washed three times in 5 ml of PBS (50 mM sodium phosphate buffer, 150 mM NaCl [pH 7.0]) and centrifuged at 1,000×g for 6 min at room temperature. The pellets were resuspended in PBS and further diluted to a concentration of 10^9 human erythrocytes/ml. Hemolytic activity was determined as follows. To the human erythrocyte solution (50 μl), PBS (1 ml) was added, followed by different concentrations of the peptides. The suspension was incubated for 30 min at 37° C. and then centrifuged at 1,000×g for 6 min at 4° C. The supernatant was monitored at 415 nm by using a spectrophotometer (Bio-Rad, Munich, Germany). The hemolytic activity of each peptide was expressed as the percentage of the total hemoglobin release compared to the release after incubation with Millipore water.

[4] = DOPC-DOPG (1:1 molar ratio) liposomes

Q: Which “antimicrobial effect (percentage of killed cells)” value [1] does the source give for “DPYAEAASGPNPGSKSHESAQAENCGADPE [DPI, negative control peptide, unrelated scrambled peptide]” here?
A: no appreciable antimicrobial effect

Q: And the “Secondary structure, Random coil” value ([2]; 10 mM NaP)?
A: 54.8%

Q: What about the “Secondary structure, Turn” value ([2]; 10 mM NaP) of the same compound?
A: 19.4%

Q: What about the “Secondary structure, α-Helix” value ([2]; 10 mM NaP) of the same compound?
A: 0.0%

Q: What about the “Secondary structure, β-Sheet” value ([2]; 10 mM NaP) of the same compound?
A: 25.8%

Q: And the “Secondary structure, Random coil” value ([2]; 60% TFE)?
A: 42.5%

Q: And the “Secondary structure, Turn” value ([2]; 60% TFE)?
A: 6.0%

Q: And the “Secondary structure, α-Helix” value ([2]; 60% TFE)?
A: 9.6%

Q: What about the “Secondary structure, β-Sheet” value ([2]; 60% TFE) of the same compound?
A: 42.0%

Q: And the “Secondary structure, Random coil” value [2, 4]?
A: 51.2%

Q: And the “Secondary structure, Turn” value [2, 4]?
A: 19.1%

Q: What about the “Secondary structure, α-Helix” value [2, 4] of the same compound?
A: 0.0%

Q: And the “Secondary structure, β-Sheet” value [2, 4]?
A: 29.7%

Q: And the “Secondary structure, Random coil” value ([2]; dH2O)?
A: 50.3%

Q: What about the “Secondary structure, Turn” value ([2]; dH2O) of the same compound?
A: 15.4%

Q: What about the “Secondary structure, α-Helix” value ([2]; dH2O) of the same compound?
A: 0.0%

Q: And the “Secondary structure, β-Sheet” value ([2]; dH2O)?
A: 34.3%

Q: What about the “CF leakage from liposomes made of DOPC and DOPC-DOPG” value [3] of the same compound?
A: ≤ 2%

Q: With `CC[C@H](C)[C@H](NC(=O)[C@H](CCCCN)NC(=O)[C@H](CCC(=O)O)NC(=O)[C@H](CCCCN)NC(=O)[C@H](CO)NC(=O)[C@H](CCCCN)NC(=O)[C@H](CCCNC(=N)N)NC(=O)[C@H](Cc1ccccc1)NC(=O)[C@H](Cc1ccccc1)NC(=O)[C@H](CC(=O)O)NC(=O)CNC(=O)[C@H](CC(C)C)NC(=O)[C@@H](N)CC(C)C)C(=O)NCC(=O)N[C@@H](CCCCN)C(=O)N[C@@H](CCC(=O)O)C(=O)N[C@@H](Cc1ccccc1)C(=O)N[C@@H](CCCCN)C(=O)N[C@@H](CCCNC(=N)N)C(=O)N[C@H](C(=O)N[C@H](C(=O)N[C@@H](CCC(N)=O)C(=O)N[C@@H](CCCNC(=N)N)C(=O)N[C@H](C(=O)N[C@@H](CCCCN)C(=O)N[C@@H](CC(=O)O)C(=O)N[C@@H](Cc1ccccc1)C(=O)N[C@@H](CC(C)C)C(=O)N[C@@H](CCCNC(=N)N)C(=O)N[C@@H](CC(N)=O)C(=O)N[C@@H](CC(C)C)C(=O)N[C@H](C(=O)N1CCC[C@H]1C(=O)N[C@@H](CCCNC(=N)N)C(=O)N[C@H](C(=O)N[C@@H](CCC(=O)O)C(=O)N[C@@H](CO)C(=O)O)[C@@H](C)O)C(C)C)[C@@H](C)CC)C(C)C)[C@@H](C)CC` [LL-37] as the compound, how does the hemolytic activity (human erythrocytes) read?
A: up to 2.5%
